Experimental data from the DeepSol protein solubility set.

Test: soluble on expression in E. coli; label from the status in PepcDB or PDB records

| Sequence | soluble on expression in E. coli |
| --- | --- |
| MSLAAGVLPQNEQPYSTLVNNSECVANMKGNLERPTPKYTKVGERLRHVIPGHMACSMACGGRACKYENPARWSEQEQAIKGVYSSWVTDNILAMARPSSELLEKYHIIDQFLSHGIKTIINLQRPGEHASCGNPLEQESGFTYLPEAFMEAGIYFYNFGWKDYGVASLTTILDMVKVMTFALQEGKVAIHCHAGLGRTGVLIACYLVFATRMTADQAIIFVRAKRPNSIQTRGQLLCVREFTQFLTPLRNIFSCCDPKAHAVTLPQYLIRQRHLLHGYEARLLKHVPKIIHLVCKLLLDLAEEGHHHHHH | not soluble |
| MFMIKVITPETNHPKEGGILSALVSIYNCTIHIRKPRFTADQYKKYLHDHNQLLSHFVLHEHHSLAKEFPVMGVHLKELDRINPAQVHPDIKIISTSIHSIADAGNLSHPFEYIFYSPLFQSISKENYGTNNSLADLKKTVSELKEQTGIPIIGLGGIYEANIDLVKKSGFDGAALLGAVWVQSDPLAAFGRIASMILEHHHHHH | not soluble |
| VGKVFVDAIVKFTKEGDKIPLEIVWDDGRRFEVDRVLDVTKAASLKAGGRGTRYKCRIRGKEIYLFFDDEKWFVETGNK | not soluble |
| MSLKRKYEDHFKEQAVRLSFERGEISSVERELGINRTSLGKWRKKYEHLKLAPKDAVIIELNKKIKDSLLTLEILKNGSEFAAQGKVMTKRFIENNSSKYPIGKMCALLQISQRAYYKLKKKEISDKQSQIILLKEEVAAVYYEFKKTYGYRKIAKVLQCRGFKVGESQIRIYMNALGLRRRAKSRFTITTDSVHNHYIAQNILNREFTINQPAKAWVSDITYIAAEKGFLYLTIVLDLFDRKIIGWSLADSMSTKETTLPAWEMAVKNRNITQDLIFHSDRGVQYANKIFTETLDSYKFVRRSMSRKQNHNDNAVSESFFGNLKRELINGNKPLPREQMRVQVYQYIENWYNKKRRHSYLNYRTIEEFDKLHEGHHHHHH | not soluble |
| AIAFQPVTQKRLTNVSVVRMRKGGKRFEIACYPNMVMAYREGHVRDLDEVIQVEDVFENVSKGKLAANADLERCFGTRDRHAVLLQILLHGDLQVSDRERQYQSTRKLHEIASVVAAKTISRETKKPLPVGLIEKALREIHFAVQPNRPAKAQALEVIPLLRAQSGLDLERARLRLRIHVPSQRDAKAVKARLEPLQQGETDGTHSSSRSDSVRMKDGSAAVESESEEWLPGGALLWTVQADPGAFREIEEIVQRETNQQGIVEVASLRVLDDEDESILS | soluble |
| MGSDKIHHHHHHMFNLTKAFLKEVPTNAEVTDFHEVHGGDINKAYSLTDAQGGRYFLKVQPNSVLAFFQHEADGLKLLGQAARVPKVIALGHVGQDQWLLLEYLNATNYGNQYSLGQDLAKIHSITSPNGQFGFDKDFKAGKTSKINTWQSSWYEFFVKQRLNVLRELLINEGKWNDDQNYKKAIEIFQSLMEKHDSRPSLLHGDFWSGNFMFDADSGQPIFIDPDVYYGDPEFDIGITTVFGGFNQDFYVGYQSTKPFQSGAERRLMFYQLYYLMVHAHLFAGSYIQAYRGKLAQIIQQ | not soluble |
| MNNETSGSRDMILKHFDSTQNNQNSVKLEHESSDNNESSGSQNFVFNFLMSQLQNMGPVEIKQEVEAKMLDDIEDEYTDNNYNEGYSKMDTDGDLEWEEEFKKLNKDPSKMDKREQERHRQMAKNREYARKCVQKKKDQRKHAEIRSNQIKKRIQLLKNKTAIKEKNANFAVDLRKMMSEIGVERLKLEYENEKMELNKKFAEMFAQDETVNLNFHRLASAREEFEKAAEDLRLKNGVIGTLGSRKIRAKQQMEWRQHLYQISAHEHEHHRETKLAELADEYVKQTVPKAAPLVTSIPKDMLDQLIKNNKTLDLEELCRFVADNLCLLQNDNDDKESVVK | not soluble |
| MSGGKLPEGWATSTINEMCNLNPKLKLDDDLDVGFMPMAGVPTTYLGKCNFETKKWSEVKKGFTQFQNDDVIFAKITPCFENGKAVVIKEFPNGYGAGSTEYYVLRSINGLINPHWLFALVKTKDFLTNGALNMSGSVGHKRVTKEFLENYGVPVPPLAEQKVIAEKLDTLLAQVDSTKARLEQIPQILKRFRQSVIVAAVNGQLTKELHKKNKFKLTELNISIPSLWKISEIGQFADVKGGKRLPKGESLIAENTGFPYIRAGQLKNGTVLPEGQLYLEEYIQKSISRYTVSSGDLYITIVGACIGDAGIIPDVYNNANLTENAAKICNLNENIFNRFLSLWLRSSYLQDIINSEIKSGAQGKLALARIKSLPLILPPLQEQHEIVRRVEQLFAYADTIEKQVNNALTRVNSLTQSILAKAFRGELTAQWRAENPELISGENSAAALLEKIKAERAASGGKKTSRKKA | not soluble |
| RAQRKMSAQSLPAATPPTQKPPRIIRPRPPSRSRAAQSPGPPHNGSSPQELPRNSNDAPTPMCTPIFWEPPAASLKPPALLPPSASRASLDSQTSPDSPSSTPTPSPVSRRSASPEPAPRSPVPPPKPSGSPCTPLLPMAGVLAQNGSASAPGTVRRLAGRFEGGAEGRAQDADAPEPGLQARADVNGEREAPLTGSGSQENGAPDAGLACPPCCPCVCHTTRPGLELRWVPVGGYEEVPRVPRRASPLRTSRSRPHPPSIGHPAVVLTSYRSTAERKLLPLLKPPKPTRVRQDATIFGDPPQPDLDLLSEDGIQTGDSPDEAPQNTPPATVEGREEEGLEVLKEQNWELPLQDEPLYQTYRAAVLSEELWGVGEDGSPSPANAGDAPTFPRPPGPRNTLWQELPAVQASGLLDTLSPQERRMQESLFEVVTSEASYLRSLRLLTDTFVLSQALRDTLTPRDHHTLFSNVQRVQGVSERFLATLLSRVRSSPHISDLCDVVHAHAVGPFSVYVDYVRNQQYQEETYSRLMDTNVRFSAELRRLQSLPKCERLPLPSFLLLPFQRITRLRMLLQNILRQTEEGSSRQENAQKALGAVSKIIERCSAEVGRMKQTEELIRLTQRLRFHKVKALPLVSWSRRLEFQGELTELGCRRGGVLFASRPRFTPLCLLLFSDLLLITQPKSGQRLQVLDYAHRSLVQAQQVPDPSGPPTFRLSLLSNHQGRPTHRLLQASSLSDMQRWLGAFPTPGPLPCSPDTIYEDCDCSQELCSESSAPAKTEGRSLESRAAPKHLHKTPEGWLKGLPGAFPAQLVCEVTGEHERRRHLRQNQRLLEAVGPSSGTPNAPPP | soluble |
| SELFTLGACRQVGKSCFVLKTSEGLVMLDCGLHPSYQDDRRYPNFSLAFSYGPLKAVFITHCHADHVGALPILTERWGYDGPIYMSEPTRKLSYYILEECVGSWGGDDEWTDSSRSEWSYTQREVESCLTKCIVGWLDMCWVLTCLASS | soluble |
| MGHHHHHHSHMSHTQQQTASSTETSTVTVPPSREQNLVLHLSPNPAQPSTSERRHVVWATETVDNEGMGKKKSKCCCIYKKPKNWQDSSSDSDSDCETGHCRGHVEHKKNEEPKSSN | soluble |
| IRQTYEQSCGASSLATLLNILDDQKKFDELELLKIMSGQELYTDMVSFADLNDAVKKLGFQSNSYQINRENLDKLVNIPMLVKIEDDPRFPHFVIIINHKGNYLQVLDPSHGEYISSKSQFFSIWDRYNKGGYALIVAP | not soluble |
| MSQYSENIIIGAGAAGLFCAAQLAKLGKSVTVFDNGKKIGRKILMSGGGFCNFTNLEVTPAHYLSQNPHFVKSALARYTNWDFISLVAEQGITYHEKELGQLFCDEGAEQIVEMLKSECDKYGAKILLRSEVSQVERIQNDEKVRFVLQVNSTQWQCKNLIVATGGLSMPGLGATPFGYQIAEQFGIPVIPPRASLVPFTYRETDKFLTALSGISLPVTITALCGKSFYNQLLFTHRGISGPAVLQISNYWQPTESVEIDLLPNHNVEEEINQAKQSSPKQMLKTILVRLLPKKLVELWIEQGIVQDEVIANISKVRVKNLVDFIHHWEFTPNGTEGYRTAEVTMGGVDTKVISSKTMESNQVSGLYFIGEVLDVTGWLGGYNFQWAWSSAYACALSISRQ | soluble |
| MGSDKIHHHHHHMEWLEQLLGKEWSLVPAGGVTGDAYIAQNGQQKLFLKRNTSPFLAVLSAEGIVPKLLWTRRVTNGDVISAQKWLPGQKLEPEDMKLERVAKLLKKIHSSKALVQMIQRLGKQPLHAQELLQQLQLVLRGDIRDEETIQQGLQYLMDSLKDIEYNEFVVCHCDVNHNNWLLSDEDELFLIDWDGAVIADPALDLGMLLYWYIPRQEWSEWLGYYDIEMDESLLKRMRWYVIAQTILSIQWHTTKKQQAEAEYWHQYLQQLLASE | not soluble |
